Laboratory results reported in the supplement of paper PMC10126150.
± gives the standard deviation of the averaged measurements.
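Further: ATP exposure 15 min at 22 °C before imaging.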

These sequences were tested on ATP (assay: switch fluorescence ratio, 500 uM ATP over buffer (Cy3 cluster intensity, sum of 5 cycles each) (fold (ratio)); higher = stronger signal-on switching upon ATP binding; sequences stand for … in TCGTCGGCAGCGTCAGATGTGTATAAGAGACAGTTTTTTTTTTTTTTTTTTTTTTTTT…TC). Details: aptamer strand: ATP DNA aptamer (quencher-CACCTGGGGGAGTATTGCGGAGGAAGG + anchor), 100 nM annealed; ATP concentration: 500 uM.
In short: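 The fluorescence ratio divides summed target-cycle Cy3 intensity by summed buffer-cycle Cy3 intensity for each cluster and is averaged per switch-domain sequence. Cy3-labelled switching-strand clusters on a modified Illumina MiSeq flow-cell were annealed to 100 nM quencher-labelled ATP aptamer, then imaged in selection buffer and again after 15 min with 500 uM ATP at 22 °C. Five such cycles were run, with NaOH stripping and re-annealing between them, and clusters outside 100-1000 RFU were excluded.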
AAACAGTTAT showed a switch fluorescence ratio of 1.03 ± 0.042.
In the case of AAACATTATT, the switch fluorescence ratio is reported as 1 ± 0.063.
Sequence AAACCATCCG has a switch fluorescence ratio of 1.63 ± 0.064.
In the case of AAACCCGATA, the switch fluorescence ratio is reported as 1.05 ± 0.025.
AAACCGGGGT was tested, and the switch fluorescence ratio was 1.66 ± 0.94.
For AAACGCCATT, the switch fluorescence ratio was 1.13 ± 0.018.
Work on AAACGCTGCG yielded a switch fluorescence ratio of 1.02 ± 0.035.
Sequence AAACGGGTCA has a switch fluorescence ratio of 0.983 ± 0.03.
Work on AAACGGTGTG yielded a switch fluorescence ratio of 1.03 ± 0.037.
AAACGTAACG was tested, and the switch fluorescence ratio was 1.07 ± 0.029.
With AAACGTATGT the switch fluorescence ratio was 0.9984 ± 0.0079.
Sequence AAACGTTGCT has a switch fluorescence ratio of 1.19 ± 0.015.
For AAACTACTCT, the switch fluorescence ratio was 1.03 ± 0.02.
AAACTAGAAG gave a switch fluorescence ratio of 1.01 ± 0.019.
AAACTGGATG was tested, and the switch fluorescence ratio was 0.9783 ± 0.0039.
For AAACTTCGCT, the switch fluorescence ratio was 1.27 ± 0.25.
AAACTTGTAA gave a switch fluorescence ratio of 1.01 ± 0.027.
Sequence AAACTTTTTC has a switch fluorescence ratio of 1.02 ± 0.065.
With AAAGAAAAAA the switch fluorescence ratio was 1.012 ± 0.0025.
Work on AAAGAAAGGA yielded a switch fluorescence ratio of 0.977 ± 0.032.
In the case of AAAGAGAGAC, the switch fluorescence ratio is reported as 1.0086 ± 0.00021.
In the case of AAAGAGCTAG, the switch fluorescence ratio is reported as 1 ± 0.053.
In the case of AAAGAGGCGG, the switch fluorescence ratio is reported as 1.006 ± 0.0013.
Work on AAAGAGGGGA yielded a switch fluorescence ratio of 1.03 ± 0.016.
AAAGAGGGTG was tested, and the switch fluorescence ratio was 1.1 ± 0.058.
AAAGAGGTAG gave a switch fluorescence ratio of 0.9983 ± 0.0024.
In the case of AAAGAGGTTT, the switch fluorescence ratio is reported as 0.985 ± 0.034.
With AAAGAGTGCG the switch fluorescence ratio was 1 ± 0.042.
With AAAGATAGAT the switch fluorescence ratio was 1.002 ± 0.0027.
AAAGATCGTT was tested, and the switch fluorescence ratio was 0.9799 ± 0.0055.
For AAAGATTTTG, the switch fluorescence ratio was 0.982 ± 0.031.
In the case of AAAGCAGGGG, the switch fluorescence ratio is reported as 1.06 ± 0.037.
AAAGCCGGTT was tested, and the switch fluorescence ratio was 0.9689 ± 0.004.
In the case of AAAGCCTGGG, the switch fluorescence ratio is reported as 0.966 ± 0.027.
For AAAGCGGATG, the switch fluorescence ratio was 0.986 ± 0.077.
AAAGCGTATA was tested, and the switch fluorescence ratio was 0.987 ± 0.052.
Work on AAAGCTGGGG yielded a switch fluorescence ratio of 0.981 ± 0.048.
AAAGCTGGGT was tested, and the switch fluorescence ratio was 1 ± 0.026.
AAAGGAAAGG showed a switch fluorescence ratio of 0.992 ± 0.014.
AAAGGAAGGG showed a switch fluorescence ratio of 0.989 ± 0.033.
In the case of AAAGGAATTT, the switch fluorescence ratio is reported as 1.12 ± 0.19.
Sequence AAAGGAGATT has a switch fluorescence ratio of 0.996 ± 0.028.
In the case of AAAGGAGTA, the switch fluorescence ratio is reported as 1.01 ± 0.037.
AAAGGATACG gave a switch fluorescence ratio of 1.01 ± 0.034.
For AAAGGCCAGT, the switch fluorescence ratio was 1.03 ± 0.018.
With AAAGGCCGGA the switch fluorescence ratio was 1.03 ± 0.041.
AAAGGCCGTC was tested, and the switch fluorescence ratio was 1.04 ± 0.012.
AAAGGCCTG was tested, and the switch fluorescence ratio was 1.01 ± 0.017.
In the case of AAAGGCTCGG, the switch fluorescence ratio is reported as 0.978 ± 0.022.
AAAGGGCTCT gave a switch fluorescence ratio of 0.9821 ± 0.0078.
Work on AAAGGGGTTT yielded a switch fluorescence ratio of 1.02 ± 0.022.
In the case of AAAGGGTATA, the switch fluorescence ratio is reported as 0.978 ± 0.064.
For AAAGGGTGGC, the switch fluorescence ratio was 1.01 ± 0.028.
AAAGGGTTGC was tested, and the switch fluorescence ratio was 0.999 ± 0.041.
Sequence AAAGGTAGGG has a switch fluorescence ratio of 0.993 ± 0.032.
In the case of AAAGGTAGTA, the switch fluorescence ratio is reported as 0.9934 ± 0.0097.
AAAGGTCAGG showed a switch fluorescence ratio of 1 ± 0.028.
With AAAGGTGCCA the switch fluorescence ratio was 1.05 ± 0.015.
With AAAGGTTATC the switch fluorescence ratio was 1.018 ± 0.0098.
AAAGTCTTT was tested, and the switch fluorescence ratio was 1.02 ± 0.047.
With AAAGTGAGGT the switch fluorescence ratio was 1.01 ± 0.017.
Work on AAAGTGGTGG yielded a switch fluorescence ratio of 1.02 ± 0.039.
For AAAGTGTTGT, the switch fluorescence ratio was 0.979 ± 0.039.
AAAGTGTTTG showed a switch fluorescence ratio of 1.02 ± 0.016.
In the case of AAAGTGTTTT, the switch fluorescence ratio is reported as 0.995 ± 0.051.
For AAAGTTGATT, the switch fluorescence ratio was 1.01 ± 0.03.
With AAAGTTTCAT the switch fluorescence ratio was 0.991 ± 0.034.
With AAATAAAAAC the switch fluorescence ratio was 1.08 ± 0.044.
AAATAACGAG gave a switch fluorescence ratio of 1 ± 0.036.
Sequence AAATACCGGC has a switch fluorescence ratio of 1.1 ± 0.16.
For AAATACGTCT, the switch fluorescence ratio was 1.09 ± 0.096.
Work on AAATAGGCAT yielded a switch fluorescence ratio of 1.0235 ± 0.00029.
With AAATAGGGGT the switch fluorescence ratio was 1 ± 0.039.
In the case of AAATAGGGTA, the switch fluorescence ratio is reported as 0.993 ± 0.023.
AAATAGGTG was tested, and the switch fluorescence ratio was 1.12 ± 0.058.
AAATAGGTGA showed a switch fluorescence ratio of 1.05 ± 0.025.
With AAATAGGTTG the switch fluorescence ratio was 1.01 ± 0.021.
